Assay results: paper PMC8407082, “An Integrative Approach to Determine 3D Protein Structures Using Sparse Paramagnetic NMR Data and Physical Modeling” (Frontiers in Molecular Biosciences, 2021)

Target: T1, calmodulin (UniProt P0DP23 1-149)
T1 construct: calmodulin, printed as 148 residues long; 13C/15N-labelled; The MELD model has 149 residues (with the extension C149); also called CaM; source: expressed in M9 minimal medium with 15NH4Cl and 13C6-glucose, purified as described previously (Liu and Vogel, 2012; Ishida et al., 2016)
Assay: solution NMR (backbone chemical shifts, PRE, RDC) with MELD modelling of the complex's structure; 600 MHz; 1.2-fold excess of peptide mixed with CaM; RDCs in 2 mM bis-Tris pH 7.0, 300 mM KCl, 16 mg/ml Pf1 bacteriophage
Conditions: both partners purified

B1: smooth muscle myosin light chain kinase peptide (peptide)
peptide: PARRKWQKTGHAVRAIGRLSS
notes: proline left from the Asp-Pro acid cleavage site of the linker GGGGSSDP; Made unlabelled (LB) or 13C/15N-labelled (M9); The N-terminal proline is not seen in the NMR experiments and was left out of the MELD model; also called smMLCK peptide; smMLCKp; not shown: 6xHis, N-terminal, cleaved; KSI (D38A), N-terminal, cleaved
binding result: binds
